Measurements reported in paper PMC3257258, “Characterization of a Novel Association between Two Trypanosome-Specific Proteins and 5S rRNA”.

T1: P37 (Trypanosoma brucei, UniProt O15759 1-279)
T1 sequence: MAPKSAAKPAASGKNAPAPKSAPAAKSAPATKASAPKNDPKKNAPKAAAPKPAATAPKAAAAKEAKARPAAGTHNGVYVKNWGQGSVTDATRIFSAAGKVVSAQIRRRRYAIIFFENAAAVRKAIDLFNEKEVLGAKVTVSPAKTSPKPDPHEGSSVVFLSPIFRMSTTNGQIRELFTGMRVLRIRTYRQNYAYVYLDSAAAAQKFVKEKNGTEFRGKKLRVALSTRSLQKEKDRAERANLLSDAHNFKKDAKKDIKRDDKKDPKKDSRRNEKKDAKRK

T2: P34 (Trypanosoma brucei, UniProt O15758 1-262)
T2 sequence: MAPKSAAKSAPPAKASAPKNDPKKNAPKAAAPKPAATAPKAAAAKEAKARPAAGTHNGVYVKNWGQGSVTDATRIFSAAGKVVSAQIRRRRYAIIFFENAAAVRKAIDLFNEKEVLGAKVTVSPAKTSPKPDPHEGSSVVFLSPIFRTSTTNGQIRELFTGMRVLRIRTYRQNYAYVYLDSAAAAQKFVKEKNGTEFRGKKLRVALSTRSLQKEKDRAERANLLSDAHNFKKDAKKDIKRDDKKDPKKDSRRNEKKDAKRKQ

B1: 5S rRNA deltaU (U43A) (structured_RNA)
RNA: GGGUACGACCAUACUUGGCCGAAUGCACCAUAUCCCGUCCGAAUUGUGAAGUUAAGCGGCCACAGGCCUCGUUAGUACGGCGAUCAGUGAUGGCGCUGGAACCCGGGGUGUUGUACUCU
B2: LoopA/StemV (structured_RNA)
RNA: GCGGGGUGCCAUACUUACAGGCCUCGC

Legend:
P37 [1] = target: T1, P37; assay: filter binding; similar to wild type, data not shown; Filter binding: 10 mM Tris pH 7.4, 1 mM EDTA, 100 mM NaCl, 0.1% NP-40, 100 ug/mL BSA, RT 20 min; EMSA/competition/RNase H protection: 10 mM Tris-HCl pH 7.4, 150 mM KCl, 0.1 mM DTT, 0.1 mM EDTA, 0.1% NP-40, RT 20 min; settings: protein: recombinant; tags: His (pQE-1); label: 32P-UTP (body)
P34 [2] = target: T2, P34; assay: filter binding; no significant difference from wild type (one text sentence says P37; legend and assay say P34); Filter binding: 10 mM Tris pH 7.4, 1 mM EDTA, 100 mM NaCl, 0.1% NP-40, 100 ug/mL BSA, RT 20 min; EMSA/competition/RNase H protection: 10 mM Tris-HCl pH 7.4, 150 mM KCl, 0.1 mM DTT, 0.1 mM EDTA, 0.1% NP-40, RT 20 min; settings: protein: recombinant; tags: His (pQE-1); label: 32P-UTP (body)
P34 [3] = target: T2, P34; assay: competition; competes 5S rRNA at 100-1000 ng; Filter binding: 10 mM Tris pH 7.4, 1 mM EDTA, 100 mM NaCl, 0.1% NP-40, 100 ug/mL BSA, RT 20 min; EMSA/competition/RNase H protection: 10 mM Tris-HCl pH 7.4, 150 mM KCl, 0.1 mM DTT, 0.1 mM EDTA, 0.1% NP-40, RT 20 min; settings: protein: recombinant; tags: His (pQE-1); hairpin
P37 [4] = target: T1, P37; assay: competition; competes 5S rRNA at 100-1000 ng, somewhat better than for P34; Filter binding: 10 mM Tris pH 7.4, 1 mM EDTA, 100 mM NaCl, 0.1% NP-40, 100 ug/mL BSA, RT 20 min; EMSA/competition/RNase H protection: 10 mM Tris-HCl pH 7.4, 150 mM KCl, 0.1 mM DTT, 0.1 mM EDTA, 0.1% NP-40, RT 20 min; settings: protein: recombinant; tags: His (pQE-1); hairpin

| Binder | binding result (P37 [1]) | binding result (P34 [2]) | binding result (P34 [3]) | binding result (P37 [4]) |
| --- | --- | --- | --- | --- |
| B1 | binds | binds |  |  |
| B2 |  |  | binds | binds |
